doi:10.1101/410217 (bioRxiv, 2018)

Target: T1, human parechovirus 3 (HPeV3) isolate A308/99 virion (Human parechovirus 3, isolate A308/99, strain)
T1 chain 1: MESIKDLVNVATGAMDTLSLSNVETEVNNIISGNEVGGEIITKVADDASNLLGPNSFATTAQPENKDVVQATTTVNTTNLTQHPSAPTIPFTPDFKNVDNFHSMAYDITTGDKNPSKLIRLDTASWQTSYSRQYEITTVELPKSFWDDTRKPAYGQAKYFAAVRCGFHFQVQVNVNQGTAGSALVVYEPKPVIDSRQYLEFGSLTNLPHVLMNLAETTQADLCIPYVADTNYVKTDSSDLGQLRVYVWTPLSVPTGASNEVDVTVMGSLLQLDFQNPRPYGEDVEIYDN
T1 chain 2: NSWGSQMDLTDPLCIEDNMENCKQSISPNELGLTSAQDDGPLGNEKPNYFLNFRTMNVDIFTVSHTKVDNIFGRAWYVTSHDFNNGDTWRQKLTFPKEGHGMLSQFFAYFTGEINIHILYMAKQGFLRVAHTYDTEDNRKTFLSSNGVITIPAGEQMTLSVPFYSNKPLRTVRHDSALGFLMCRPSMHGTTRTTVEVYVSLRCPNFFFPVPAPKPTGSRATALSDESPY
T1 chain 3: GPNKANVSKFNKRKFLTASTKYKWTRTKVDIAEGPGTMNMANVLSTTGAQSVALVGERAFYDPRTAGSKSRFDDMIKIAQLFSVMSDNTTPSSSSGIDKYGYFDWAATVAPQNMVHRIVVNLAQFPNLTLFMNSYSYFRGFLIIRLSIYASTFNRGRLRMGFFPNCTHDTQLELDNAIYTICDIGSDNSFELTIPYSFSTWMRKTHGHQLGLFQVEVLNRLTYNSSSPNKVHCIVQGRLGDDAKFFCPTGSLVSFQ
Experiment: cryo-EM structure

B1: Fab fragment of human monoclonal antibody AT12-015 (Fab, V domains shown)
VH: EVQLLESGGGLVQPGGSLRLSCAASGFTFSSYAMSWVRQAPGKGLEWVSAISGGGDSRYYADSVKGRFTISRDNSKNTLYLQMNSLGAEDTALYYCAKRLGRVAEYYFDYWGQGTLVTVSP
VL: DIQMTQSPSTLSASVGDRVTITCRTSQSISNWLAWYQQKPGKAPKLLIYQASTLENGVPSRFTGSGSGTEFSLTISSLQPDDFATYYCQQYNNYMALTFGGGTKVEIK
stoichiometry N: 60 Fab per virion
